Measured values from patent US20250186614A1, “COMPACT DRUG RESPONSIVE DOMAINS FOR REGULATION OF FUNCTION/ABUNDANCE AND DELIVERY OF POLYPEPTIDE PAYLOADS” (OBSIDIAN THERAPEUTICS, INC., priority 2022, published 2025).
Where a chain is given by its changes, count along the chain named. In names and notes the source's numbering stands. Where two headings read alike, the source gives them in different places.

B1: FKBP-153: FKBP13 DRD Q72R, S79W, Q84E, A117W, M54A; SEQ ID NO: 103 (protein)
chain: HCPIKSRKGDVLHAHYTGKLEDGTEFDSSLPRNQPFVFWLGTGEVIKGWDQGLLGMCEGEKRKLVIPSELGYGERGWPPKIPGGATLVFEVELLKIER
modifications: Description of sequence: FKBP13-AcGFP-mCherry Fusion; Construct Name: FKBP-153; FKBP13 DRD in Construct : FKBP13 (mutated to match FKBP12 active site Q72RS79W Q84E A117W) (DRD M54A)
B2: FKBP-155: FKBP13 DRD Q72R, S79W, Q84R, A117W, M54A; SEQ ID NO: 105 (protein)
chain: B1 chain with E44R
modifications: Description of sequence: FKBP13-AcGFP-mCherry Fusion; Construct Name: FKBP-155; FKBP13 DRD in Construct : FKBP13 (mutated to match FKBP12 active site Q72R S79W Q84R A117W) (DRD M54A)
B3: FKBP-251: combinatorial FKBP13 mutant construct of Table 10 (protein)
chain: B1 chain with A14M, W39S, V45R, E90F
modifications: Description of sequence: Construct Name: FKBP-251; Mutation(s): Q72R Q84E A117W V85R DRD E130F
B4: FKBP-197: FKBP13 DRD-AcGFP construct of Table 10 (protein)
chain: B1 chain with A14M, W39S, V45R, E90R
modifications: Description of sequence: Construct Name: FKBP-197; Mutation(s): Q72R Q84E A117W V85R DRD E130R
B5: FKBP-117: FKBP13 DRD Q72R, Q84E, A117W, V85R; SEQ ID NO: 67 (protein)
chain: B1 chain with A14M, W39S, V45R
modifications: Description of sequence: FKBP13-AcGFP-mCherry Fusion; Construct Name: FKBP-117; FKBP13 DRD in Construct : FKBP13 (mutated to match FKBP12 active site Q72R Q84E A117W) (DRD V85R)
B6: FKBP-215: combinatorial FKBP13 mutant construct of Table 10, carries M54A (protein)
chain: B1 chain with P3R, W39S, E44G, V45R, K95Y
modifications: Description of sequence: Construct Name: FKBP-215; Mutation(s): Q72R Q84G A117W V85R DRD P43R M54A K135Y
B7: FKBP-154: FKBP13 DRD Q72R, S79W, Q84W, A117W, M54A; SEQ ID NO: 104 (protein)
chain: B1 chain with W39S
modifications: Description of sequence: FKBP13-AcGFP-mCherry Fusion; Construct Name: FKBP-154; FKBP13 DRD in Construct : FKBP13 (mutated to match FKBP12 active site Q72R S79W Q84W A117W) (DRD M54A)
B8: FKBP-158: FKBP13 DRD Q72R, Q84E, A117W, M54A G111E; SEQ ID NO: 108 (protein)
chain: B1 chain with W39S, G71E
modifications: Description of sequence: FKBP13-AcGFP-mCherry Fusion; Construct Name: FKBP-158; FKBP13 DRD in Construct : FKBP13 (mutated to match FKBP12 active site Q72R Q84E A117W) (DRD M54A G111E)
B9: FKBP-157: FKBP13 DRD Q72R, T82W, Q84E, A117W, M54A; SEQ ID NO: 107 (protein)
chain: B1 chain with W39S, T42W, E44R
modifications: Description of sequence: FKBP13-AcGFP-mCherry Fusion; Construct Name: FKBP-157; FKBP13 DRD in Construct : FKBP13 (mutated to match FKBP12 active site Q72R T82W Q84E A117W) (DRD M54A)
B10: FKBP-156: FKBP13 DRD Q72R, T82W, Q84W, A117W, M54A; SEQ ID NO: 106 (protein)
chain: B1 chain with W39S, T42W, E44W
modifications: Description of sequence: FKBP13-AcGFP-mCherry Fusion; Construct Name: FKBP-156; FKBP13 DRD in Construct : FKBP13 (mutated to match FKBP12 active site Q72R T82W Q84W A117W) (DRD M54A)
B11: FKBP-228: combinatorial FKBP13 mutant construct of Table 10 (protein)
chain: B1 chain with A14M, W39S, V45R, E97R
modifications: Description of sequence: Construct Name: FKBP-228; Mutation(s): Q72R Q84E A117W V85R DRD E137R

Experiments:
Format in all cases: cell-based
Jurkat cells [1] = experiment: Tacrolimus dose response of FKBP13-AcGFP-mCherry constructs stably transduced into Jurkat cells, GFP MFI by flow cytometry; parameters: Basal: unit not given here; conditions: for EC90 / Tacrolimus FC: Table 14; for Fold Change: Jurkat cells stably transduced; for Tacrolimus FC: fold change; for basal AcGFP expression: absence of tacrolimus
Method in brief: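 Jurkat E6-1 cells lentivirally transduced with FKBP13-AcGFP-mCherry constructs to 10-25% mCherry+ (day 5) were dosed with tacrolimus. GFP geometric MFI in mCherry+ cells was measured by flow cytometry and fitted to dose-response curves.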

Jurkat cells [2] = experiment: Sirolimus (rapamycin) dose response of FKBP13 constructs stably transduced into Jurkat cells, flow cytometry; conditions: for Fold Change: rapamycin (sirolimus), Jurkat cells stably transduced, Table 8; for EC90 / Rapamycin FC: rapamycin, Table 14; for Rapamycin FC: fold change; for difference between rapamycin and tacrolimus: ratio of EC50 and fold change, Table 9; for EC50 (tacrolimus)/ EC50 (rapamycin): ratio of Table 7 and Table 8 EC50 values; for EC50 (tacrolimus)/ EC50 (rapamycin) / Fold change (tacrolimus)/ Fold change (rapamycin): Jurkat cells; for Fold change (tacrolimus)/ Fold change (rapamycin): ratio of Table 7 and Table 8 fold changes
Method: Normalized EC50 values were calculated from the mCherry normalized GFP MFI values, which accounted for any differences in mCherry intensity between samples.

[3] = Example 4: dose response of FKBP constructs 160-255, Ec50, Ec90 and fold change (raw and normalized to mCherry); conditions: for FC (fold change): fold change during initial analysis
Method: Additional experiments were performed for constructs FKBP-160-292.

[4] = read-out: Tacrolimus EC90 (Norm), tacrolimus, normalized
[5] = read-out: Tacrolimus EC90, tacrolimus
[6] = normalized, read-out: Rapamycin EC90 (Norm)
[7] = FKBP constructs 160-255, not normalized, read-out: EC90
[8] = normalized to mCherry, read-out: EC90 (Norm)

Row | EC90 (Jurkat cells [1]; [5]) | EC90 (Jurkat cells [2]; read-out: Rapamycin EC90) | EC50 (tacrolimus)/ EC50 (rapamycin) (Jurkat cells [2]) | Molecule | EC90 (Jurkat cells [1]; [4]) | Fold Change (Jurkat cells [1]; tacrolimus, Table 7) | Tacrolimus FC (Jurkat cells [1]; tacrolimus) | Fold Change (Jurkat cells [2]) | Rapamycin FC (Jurkat cells [2]) | EC90 (Jurkat cells [2]; [6]) | Fold change (tacrolimus)/ Fold change (rapamycin) (Jurkat cells [2]) | EC90 [3, 7] | FC (fold change) [3] | EC90 [3, 8] | other results
1 | 341 nM | 1520 nM | 0.20 | B1 | 383 nM | 30.07 | 39.7 | 4.8 | 6.1 | 1540 nM | 6.26 | – | – | – | difference between rapamycin and tacrolimus (Jurkat cells [2]): largest difference between rapamycin and tacrolimus
2 | 808 nM | 1140 nM | 0.72 | B2 | 947 nM | 41.68 | 61.3 | 5.6 | 7.5 | 1180 nM | 7.44 | – | – | – | difference between rapamycin and tacrolimus (Jurkat cells [2]): largest difference between rapamycin and tacrolimus
3 | – | – | – | B3 | – | – | – | – | – | – | – | 104 nM | 97.5 | 113 nM | Basal (Jurkat cells [1]; FIG. 40): 76; FC (Jurkat cells [1]; FIG. 40): 100; Peak (Jurkat cells [1]; FIG. 40): 7406; Basal (Jurkat cells [1]; FIG. 46, BR1 (Biorep 1)): 64; FC (Jurkat cells [1]; FIG. 46, BR1 (Biorep 1)): 97.61; At 10 uM (Jurkat cells [1]; FIG. 46, BR1 (Biorep 1)): 6247; Basal (Jurkat cells [1]; FIG. 46, BR2 (Biorep 2)): 46.1; FC (Jurkat cells [1]; FIG. 46, BR2 (Biorep 2)): 76.79; At 10 uM (Jurkat cells [1]; FIG. 46, BR2 (Biorep 2)): 3540; basal AcGFP expression (Jurkat cells [1]): lowest basal expression; FC (Jurkat cells [1]; tacrolimus, FIG. 35): 92.03; Peak (Jurkat cells [1]; tacrolimus, FIG. 35): 5078; FC (Jurkat cells [1]; tacrolimus, FIG. 36): 92.03; Peak (Jurkat cells [1]; tacrolimus, FIG. 36): 5078; FC (Jurkat cells [1]; tacrolimus, FIG. 37): 92.03; Peak (Jurkat cells [1]; tacrolimus, FIG. 37): 5078; FC (Jurkat cells [1]; tacrolimus, FIG. 38): 92.03; Peak (Jurkat cells [1]; tacrolimus, FIG. 38): 5078
4 | – | – | – | B4 | – | – | – | – | – | – | – | 1090 nM | 101.1 | 1190 nM | Basal (Jurkat cells [1]; FIG. 46, BR1 (Biorep 1)): 70.7; FC (Jurkat cells [1]; FIG. 46, BR1 (Biorep 1)): 101.12; At 10 uM (Jurkat cells [1]; FIG. 46, BR1 (Biorep 1)): 7149; Basal (Jurkat cells [1]; FIG. 46, BR2 (Biorep 2)): 55.2; FC (Jurkat cells [1]; FIG. 46, BR2 (Biorep 2)): 72.21; At 10 uM (Jurkat cells [1]; FIG. 46, BR2 (Biorep 2)): 3986
5 | 25 nM | 170 nM | 0.20 | B5 | 27.2 nM | 18.6 | 21.2 | 6.9 | 7.6 | 171 nM | 2.70 | – | – | – | Fold Change (Jurkat cells [1]; tacrolimus, Table 6): 15.75; FC (Jurkat cells [1]; tacrolimus, FIG. 35): 24.07; Peak (Jurkat cells [1]; tacrolimus, FIG. 35): 5193; FC (Jurkat cells [1]; tacrolimus, FIG. 36): 24.07; Peak (Jurkat cells [1]; tacrolimus, FIG. 36): 5193; FC (Jurkat cells [1]; tacrolimus, FIG. 37): 24.07; Peak (Jurkat cells [1]; tacrolimus, FIG. 37): 5193; FC (Jurkat cells [1]; tacrolimus, FIG. 38): 24.07; Peak (Jurkat cells [1]; tacrolimus, FIG. 38): 5193
6 | – | – | – | B6 | – | – | – | – | – | – | – | 388 nM | 51.0 | 390 nM | Basal (Jurkat cells [1]; FIG. 48, BR1 (Biorep 1)): 65; FC (Jurkat cells [1]; FIG. 48, BR1 (Biorep 1)): 51.05; At 10 uM (Jurkat cells [1]; FIG. 48, BR1 (Biorep 1)): 3318; Basal (Jurkat cells [1]; FIG. 48, BR2 (Biorep 2)): 59.4; FC (Jurkat cells [1]; FIG. 48, BR2 (Biorep 2)): 53.30; At 10 uM (Jurkat cells [1]; FIG. 48, BR2 (Biorep 2)): 3166; basal AcGFP expression (Jurkat cells [1]): lowest basal AcGFP expression
7 | – | – | 0.35 | B7 | – | 14 | – | 3.9 | – | – | 3.59 | – | – | – | –
8 | – | – | – | B8 | – | 1.25 | – | 0.84 | – | – | 1.49 | – | – | – | –
9 | 1140 nM | 1010 nM | 0.97 | B9 | 1320 nM | 51.33 | 63.5 | 7.92 | 11.2 | 1080 nM | 6.48 | – | – | – | difference between rapamycin and tacrolimus (Jurkat cells [2]): largest difference between rapamycin and tacrolimus
10 | – | – | 0.56 | B10 | – | 18.36 | – | 8.77 | – | – | 2.09 | – | – | – | –
11 | – | – | – | B11 | – | – | – | – | – | – | – | 116 nM | 55.1 | 124 nM | Basal (Jurkat cells [1]; FIG. 41): 112; FC (Jurkat cells [1]; FIG. 41): 85; Peak (Jurkat cells [1]; FIG. 41): 8896; Basal (Jurkat cells [1]; FIG. 42, BR1 (Biorep 1)): 103; FC (Jurkat cells [1]; FIG. 42, BR1 (Biorep 1)): 55.15; At 10 uM (Jurkat cells [1]; FIG. 42, BR1 (Biorep 1)): 5680; Basal (Jurkat cells [1]; FIG. 42, BR2 (Biorep 2)): 99.6; FC (Jurkat cells [1]; FIG. 42, BR2 (Biorep 2)): 60.71; At 10 uM (Jurkat cells [1]; FIG. 42, BR2 (Biorep 2)): 6047; basal AcGFP expression (Jurkat cells [1]): lowest basal expression
